± gives the uncertainty stated by the source.
B1: Chromodomain-helicase-DNA-binding protein 3, residues 374 to 426; numbered along this chain, Q12873 (parent)
chain: YETDHQDYCEVCQQGGEIILCDTCPRAYHLVCLDPELDRAPEGKWSCPHCEKE

Variants of: B1
Assay: abundance fitness (aPCA) (normalised: wild type 0, dead -1); higher = more abundant; growth selection in yeast, the domain comes from the species named
Settings: Homo sapiens

Variant	abundance fitness
Y28C	-0.189 ± 0.15
Y28N	-0.377 ± 0.14
Y28E	-0.48 ± 0.21
Y28Q	-0.445 ± 0.14
Y28I	0.013 ± 0.13
Y28R	-0.256 ± 0.1
Y28G	-0.191 ± 0.14
Y28D	-0.593 ± 0.18
Y28T	-0.203 ± 0.14
Y28M	0.219 ± 0.14
Y28F	-0.145 ± 0.12
Y28P	-0.837 ± 0.2
Y28H	0.148 ± 0.13
P35L	-0.11 ± 0.098
P35Y	0.015 ± 0.17
P35V	0.029 ± 0.088
P35W	-0.167 ± 0.16
P35S	-0.068 ± 0.11
P35M	-0.095 ± 0.15
P35E	-0.306 ± 0.11
P35C	-0.117 ± 0.17
P35T	-0.013 ± 0.14
P35K	-0.183 ± 0.15
P35G	-0.044 ± 0.1

Variant	abundance fitness
P35I	-0.3 ± 0.23
P35D	0.039 ± 0.14
P35N	-0.196 ± 0.24
P35H	-0.052 ± 0.31
A27K	-0.407 ± 0.41
R26Y	-0.148 ± 0.15
R26P	-0.655 ± 0.17
R26G	-0.046 ± 0.091
R26M	-0.106 ± 0.16
R26S	0.087 ± 0.1
R26A	-0.202 ± 0.11
R26N	-0.169 ± 0.16
R26L	0.155 ± 0.1
R26C	-0.669 ± 0.24
R26V	-0.363 ± 0.1
R26D	-0.159 ± 0.15
R26H	-0.17 ± 0.18
R26E	-0.123 ± 0.13
R26Q	0.417 ± 0.28
R26I	-0.445 ± 0.17
P25R	-0.235 ± 0.12
P25D	-0.482 ± 0.28
P25H	-0.249 ± 0.26
P25A	0.092 ± 0.14

Variant	abundance fitness
P25F	-0.021 ± 0.37
P25Q	-0.39 ± 0.23
P25N	-0.204 ± 0.4
P25M	-0.227 ± 0.24
P25W	-0.144 ± 0.14
P25K	-0.385 ± 0.18
P25S	-0.116 ± 0.13
P25C	0.04 ± 0.18
P25I	-0.261 ± 0.33
P25T	-0.004 ± 0.14
D22Y	-0.142 ± 0.22
D22T	-0.222 ± 0.16
D22V	-0.204 ± 0.12
D22W	-0.013 ± 0.17
D22S	0.048 ± 0.15
D38C	-0.259 ± 0.19
D38A	-0.035 ± 0.15
D38K	-0.518 ± 0.24
D38T	-0.169 ± 0.21
D38W	-0.319 ± 0.18
D38S	-0.09 ± 0.13
D38L	-0.216 ± 0.11
D38Q	-0.326 ± 0.19
D38G	-0.142 ± 0.15

Variant	abundance fitness
D38P	-0.129 ± 0.15
D38N	-0.552 ± 0.16
D38Y	-0.522 ± 0.28
D38H	0.066 ± 0.43
D38M	-0.416 ± 0.18
D38V	0.011 ± 0.12
D38F	-0.082 ± 0.22
D38R	-0.352 ± 0.13
L37C	-0.142 ± 0.14
L37K	-0.116 ± 0.18
L37Y	0.073 ± 0.15
L37P	-0.154 ± 0.12
L37N	-0.189 ± 0.24
L37F	-0.426 ± 0.16
L37W	-0.298 ± 0.2
L37T	-0.275 ± 0.14
L37H	-0.037 ± 0.17
L37G	-0.108 ± 0.1
L37E	-0.732 ± 0.28
L37S	-0.295 ± 0.1
L37V	-0.143 ± 0.12
L37I	-0.191 ± 0.24
L37Q	-0.21 ± 0.16
L37D	-0.228 ± 0.17

Variant	abundance fitness
L37R	-0.094 ± 0.11
P41D	-0.368 ± 0.2
P41S	-0.045 ± 0.11
P41H	-0.374 ± 0.23
P41M	-0.202 ± 0.15
P41I	-0.083 ± 0.17
P41A	-0.114 ± 0.12
P41C	-0.344 ± 0.17
P41F	-0.25 ± 0.2
P41E	-0.092 ± 0.15
P41W	-0.317 ± 0.12
P41K	-0.25 ± 0.22
P41Q	-0.073 ± 0.17
P41L	0.015 ± 0.1
P41R	-0.093 ± 0.092
P41G	0.028 ± 0.097
P41T	-0.06 ± 0.14
P41Y	-0.153 ± 0.19
P41N	-0.026 ± 0.19
T23W	-0.631 ± 0.19
T23I	-0.189 ± 0.12
T23K	-0.696 ± 0.19
T23A	-0.337 ± 0.14
T23N	0.122 ± 0.15

Variant	abundance fitness
T23Y	0.05 ± 0.12
T23S	0.032 ± 0.1
T23V	-0.162 ± 0.17
T23H	-0.146 ± 0.13
T23F	-0.035 ± 0.11
T23M	0.024 ± 0.2
T23G	-0.248 ± 0.2
T23Q	-0.455 ± 0.27
T23R	-0.179 ± 0.11
T23P	-0.596 ± 0.14
T23L	-0.22 ± 0.099
T23D	-0.308 ± 0.2
T23E	-0.077 ± 0.16
L30D	-0.264 ± 0.17
L30A	0.053 ± 0.11
L30Q	-0.189 ± 0.14
L30S	-0.202 ± 0.097
L30K	-0.121 ± 0.14
L30G	-0.014 ± 0.13
L30Y	0.098 ± 0.13
L30H	-0.059 ± 0.13
L30T	-0.067 ± 0.11
L30N	-0.197 ± 0.18
L30C	0.072 ± 0.12

Variant	abundance fitness
L30V	-0.014 ± 0.1
L30P	0.021 ± 0.11
L30F	-0.038 ± 0.15
L30I	-0.27 ± 0.14
L30M	0.067 ± 0.088
L30E	-0.155 ± 0.14
H29C	0.029 ± 0.13
H29E	-0.872 ± 0.14
H29S	-0.852 ± 0.13
H29L	-0.763 ± 0.12
H29Y	-1.1 ± 0.19
H29P	-0.801 ± 0.17
H29V	-0.745 ± 0.11
H29T	-0.846 ± 0.15
H29K	-0.912 ± 0.17
H29R	-0.786 ± 0.097
H29F	-1.07 ± 0.19
H29D	-0.615 ± 0.15
H29G	-0.844 ± 0.11
H29N	-0.383 ± 0.17
H29W	-0.656 ± 0.14
H29A	-0.745 ± 0.11
H29I	-1.09 ± 0.22

Source: the Human Domainome abundance scans (Beltran et al. 2025)
